Our source for the decrease in Myc reporter activity and luciferase controlled by E-Box, A431 cells, 6 hours values is patent US20200354411A1, “Chimeric Molecule for Targeting c-Myc in Cells” (priority 2017, published 2020).

The experiment has as its target c-Myc (UniProt P01106). As to the kind of experiment: cell-based or functional assay.

Sequence of c-Myc (P01106 whole entry): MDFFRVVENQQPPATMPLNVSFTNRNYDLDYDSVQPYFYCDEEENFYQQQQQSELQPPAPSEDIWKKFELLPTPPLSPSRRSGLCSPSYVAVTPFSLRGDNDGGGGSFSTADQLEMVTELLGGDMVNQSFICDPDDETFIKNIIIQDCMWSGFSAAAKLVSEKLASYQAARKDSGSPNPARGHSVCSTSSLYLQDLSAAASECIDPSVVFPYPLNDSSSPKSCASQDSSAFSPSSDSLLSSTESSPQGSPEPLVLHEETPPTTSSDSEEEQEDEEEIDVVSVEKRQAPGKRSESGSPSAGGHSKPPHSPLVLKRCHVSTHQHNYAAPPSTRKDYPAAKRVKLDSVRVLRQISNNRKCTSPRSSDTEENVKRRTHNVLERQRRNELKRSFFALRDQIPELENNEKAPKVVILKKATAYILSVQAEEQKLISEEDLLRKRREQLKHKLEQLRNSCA

In turn, “CAD-H1 (Cadherin cell targeting peptide fused to H1)” had a decrease in Myc reporter activity at 150 µM of under 75% and a luciferase controlled by E-Box, A431 cells, 6 hours of 75 µM. In the case of “Int-H1 (Antenapedia cell targeting peptide fused to H1)”, the decrease in Myc reporter activity at 400 µM was under 75% and the luciferase controlled by E-Box, A431 cells, 6 hours was 200 µM. As for “Tat-H1 (TAT cell targeting peptide fused to H1)”, the luciferase controlled by E-Box, A431 cells, 6 hours worked out at 500 µM.
